Holding throughout (test): SPR
(In general: In SPR one partner is held on a chip, and binding of the other changes the refractive index at the surface.)

Assay [1] deals with CA645 gL4gH5 Fab (human) [IgG part: P01857].
Assay [2] has the same target. This is another data set of the same source.
Assay [3] shares this target. The source holds these as a separate data set.
Assay [4] has the same target. This is another data set of the same source.
For assay [5] the target is unchanged. The source holds these as a separate data set.
The target is the same in assay [6]. The source holds these as a separate data set.
For assay [7], the target named is T1, human serum albumin (Homo sapiens, UniProt P02768).
Assay [8] concerns the target mouse serum albumin (Mus musculus, UniProt P07724).
Assay [9] has as its target T1, human serum albumin. The source holds these as a separate data set.
For assay [10], the target named is human serum albumin (Homo sapiens, UniProt P02768). The source holds these as a separate data set.
Assay [11] deals with T1, human serum albumin. The source holds these as a separate data set.
Assay [12] addresses T1, human serum albumin. The source holds these as a separate data set.

Like-named read-outs stand apart in the source and are kept apart here.

Consider 7 molecules from article PMC5058626 (mAbs, 2016).

As a reminder, the Kd is the concentration at which binding is half-saturated. A lower Kd goes with tighter binding. In general, koff refers to a measure of how fast the partners let go of each other. Higher therefore signals fast dissociation. For orientation: kon means the rate constant with which the complex forms.

mouse serum albumin, sequence (P07724 25-608): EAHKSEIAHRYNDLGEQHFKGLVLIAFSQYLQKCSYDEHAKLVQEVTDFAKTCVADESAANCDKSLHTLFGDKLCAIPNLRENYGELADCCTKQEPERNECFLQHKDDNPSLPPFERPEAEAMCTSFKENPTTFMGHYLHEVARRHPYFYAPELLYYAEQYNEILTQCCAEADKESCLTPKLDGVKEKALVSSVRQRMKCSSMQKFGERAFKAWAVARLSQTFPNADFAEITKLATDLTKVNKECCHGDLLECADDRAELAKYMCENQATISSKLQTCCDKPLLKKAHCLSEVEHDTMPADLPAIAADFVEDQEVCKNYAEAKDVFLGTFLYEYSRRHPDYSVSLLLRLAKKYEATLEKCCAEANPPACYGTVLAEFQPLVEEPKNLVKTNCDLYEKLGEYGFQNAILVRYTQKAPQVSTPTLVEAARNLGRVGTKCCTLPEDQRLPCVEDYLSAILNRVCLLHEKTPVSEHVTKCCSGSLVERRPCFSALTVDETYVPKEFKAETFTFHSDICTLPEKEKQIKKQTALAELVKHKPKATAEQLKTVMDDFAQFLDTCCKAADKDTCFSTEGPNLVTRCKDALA

Regarding “human serum albumin (from UniProt P02768 25-609) (natural protein)”, the Kd was determined as 13.3 nM in assay [1]; 12.5 nM in assay [2]; 10.7 nM in [3]; 1.23 nM in assay [4]; 4.6 nM in [5]; 1.8 nM in assay [6].

B1: CA645 recombinant rabbit Fab (Fab, V domains shown)
VH: QSLEESGGRLVTPGTPLTLTCTVSGIDLSNYAINWVRQAPGKGLEWIGIIWASGTTFYATWAKGRFTISRPSTTVDLEMTSLTTADTATYFCARTVPGYSTAPYFDLWGPGTLVTVSS
VL: AAVLTQTPSPVSAAVGGTVTINCQSSPSVWSNFLSWYQQKPGQPPKLLIYEASKLTSGVPSRFKGSGSGTQFTLTISDVQCGDAATYYCGGGYSSISDTTFGGGTKVVVK
For B1, the Kd in assay [7] amounted to 0.31 nM; in [8], 2.6 nM.

B2: CA645 gL5gH5 Fab (Fab, V domains shown)
VH: EVQLLESGGGLVQPGGSLRLSCAVSGIDLSNYAINWVRQAPGKGLEWIGIIWASGTTFYATWAKGRFTISRDNSKNTVYLQMNSLRAEDTAVYYCARTVPGYSTAPYFDLWGQGTLVTVSS
VL: DIQMTQSPSSVSASVGDRVTITCQSSPSVASNFLSWYQQKPGKAPKLLIYEASKLTSGVPSRFSGSGSGTDFTLTISSLQPEDFATYYCGGGYSSISDTTFGGGTKVEIK
B2: in assay [9], the Kd was 453 nM, the koff is 0.0571 s⁻¹ and the kon came to 126000 M⁻¹ s⁻¹.

B3: CA645 gL19gH5 Fab (Fab, V domains shown)
VH: EVQLLESGGGLVQPGGSLRLSCAVSGIDLSNYAINWVRQAPGKGLEWIGIIWASGTTFYATWAKGRFTISRDNSKNTVYLQMNSLRAEDTAVYYCARTVPGYSTAPYFDLWGQGTLVTVSS
VL: DIQMTQSPSSVSASVGDRVTITCQSSPSVWDNFLSWYQQKPGKAPKLLIYEASKLTSGVPSRFSGSGSGTDFTLTISSLQPEDFATYYCGGGYSSISDTTFGGGTKVEIK
Turning to B3, in assay [10], binding was characterised by a dissociation constant (Kd) of 5 nM.

B4: CA645 gL4gH37 Fab (Fab, V domains shown)
VH: EVQLLESGGGLVQPGGSLRLSCAVSGIDLSNYAINWVRQAPGKGLEWIGIIWASGTTEYATWAKGRFTISRDNSKNTVYLQMNSLRAEDTAVYYCARTVPGYSTAPYFDLWGQGTLVTVSS
VL: DIQMTQSPSSVSASVGDRVTITCQSSPSVWSNFLSWYQQKPGKAPKLLIYEASKLTSGVPSRFSGSGSGTDFTLTISSLQPEDFATYYCGGGYSSISDTTFGGGTKVEIK
In assay [9], B4 showed a Kd of 955 nM, a koff of 0.0583 s⁻¹ and a kon of 61000 M⁻¹ s⁻¹.

B5: CA645 gL5gH37 Fab (Fab, V domains shown)
VH: EVQLLESGGGLVQPGGSLRLSCAVSGIDLSNYAINWVRQAPGKGLEWIGIIWASGTTEYATWAKGRFTISRDNSKNTVYLQMNSLRAEDTAVYYCARTVPGYSTAPYFDLWGQGTLVTVSS
VL: DIQMTQSPSSVSASVGDRVTITCQSSPSVASNFLSWYQQKPGKAPKLLIYEASKLTSGVPSRFSGSGSGTDFTLTISSLQPEDFATYYCGGGYSSISDTTFGGGTKVEIK
Turning to B5, the binding result in assay [11] is “no binding”.

B6: CA645 gL5gH47 Fab (Fab, V domains shown)
VH: EVQLLESGGGLVQPGGSLRLSCAVSGIDLSNYAINWVRQAPGKGLEWIGIIWASGTTFYATWAKGRFTISRDNSKNTVYLQMNSLRAEDTAVYYCARTVPGYSSAPYFDLWGQGTLVTVSS
VL: DIQMTQSPSSVSASVGDRVTITCQSSPSVASNFLSWYQQKPGKAPKLLIYEASKLTSGVPSRFSGSGSGTDFTLTISSLQPEDFATYYCGGGYSSISDTTFGGGTKVEIK
As for B6, the Kd in assay [12] is 52000 nM.
